The values that follow come from PMC3098852.

Assay [1] has as its target HIV-1 NefSF2 wild type, full length (1-210), C210A (HIV-1 SF2) (UniProt P03407). Briefly: ITC. For orientation: ITC needs no label: the signal is the heat of the interaction.
Assay [2] has as its target HIV-1 NefSF2 mutant (P76A, P79A, R81A), C210A (HIV-1 SF2) (UniProt P03407). Put plainly: ITC; Nef (40 to 50 µM) in the cell, inhibitor protein (400 to 500 µM) in the syringe; 10 mM Tris/HCl pH 8.0, 100 mM NaCl; 25 °C.
For assay [3], the target named is HIV-1 NefSF2 wild type, full length (1-210), C210A (HIV-1 SF2) (UniProt P03407). Put plainly: ITC; Nef (40 to 50 µM) in the cell, GST-fused inhibitor protein (400 to 500 µM) in the syringe; 10 mM Tris/HCl pH 8.0, 100 mM NaCl; 15 °C.
Assay [4] addresses HIV-1 NefSF2 (Δ1-27), C210A (HIV-1 SF2) (UniProt P03407). Briefly: ITC.
Assay [5] has as its target HIV-1 NefSF2 (Δ1-44), C210A (HIV-1 SF2) (UniProt P03407). Put plainly: ITC.
Assay [6] deals with HIV-1 NefSF2 (Δ1-58), C210A (HIV-1 SF2) (UniProt P03407). Briefly: ITC.
Assay [7] addresses GST-NI3-9, Hck-SH3 (VSWSPD) - polyGly linker - CD4 cytoplasmic tail (human) (UniProt P08631). Briefly: SPR; GST-NI3-9 held on a CM5 chip via an anti-GST antibody; hexa-histidine tagged Nef 400-1000 nM flowed at 5 µl/min; 10 mM HEPES pH 8.0, 150 mM NaCl, 0.005% IGEPAL; 25 °C.
For assay [8], the target named is fluorescence-labelled NI3-3 (human) (UniProt P01730). Briefly: other fluorescence titration.

Broadly, the Kd is the concentration at which binding is half-saturated. The low end stands for higher affinity, the high end for lower affinity. The stoichiometry N is a count of units in the complex or per binding partner. In assay [1], “GST-NI3-1, CD4 cytoplasmic tail (37 residues) - five residue linker - Hck-SH3 (VSWSPD) (from UniProt P01730 419-458; P08631-1 78-138) (designed binder)” had an equilibrium dissociation constant (Kd) of 84 nM, a dH of -8.51 kcal/mol and a stoichiometry N of 1.09.
In the same order, the values of “GST-NI3-3, CD4 cytoplasmic tail (CQC to SQS) fused to Hck-SH3 (VSWSPD) (from UniProt P01730 419-458; P08631-1 78-138) (designed binder)” are 88 nM, -8.64 kcal/mol and 1.12.
In the same order, the values of “GST-NI3-4, CD4 cytoplasmic tail (dileucine LL to AA) fused to Hck-SH3 (VSWSPD) (from UniProt P01730 419-458; P08631-1 78-138) (designed binder)” are 544 nM, -8.55 kcal/mol and 0.97.
In the same order, the values of “GST-NI3-5, wild type CD4 sequence attached with a glycine-serine-rich linker of 12 residues to Hck-SH3 (VSWSPD) (from UniProt P01730 419-458; P08631-1 78-138) (designed binder)” are 64 nM, -8.22 kcal/mol and 1.06.
In assay [1], “GST-NI3-8, CD4 cytoplasmic tail shortened to 23 residues fused N-terminally to Hck-SH3 (VSWSPD) (from UniProt P01730 419-458; P08631-1 78-138) (designed binder)” yielded a Kd of 107 nM, a dH of -8.2 kcal/mol and a stoichiometry N of 0.93.
In assay [2], “GST-NI3-9, Hck-SH3 (VSWSPD) - polyGly linker - CD4 cytoplasmic tail (from UniProt P08631-1;P01730) (designed binder)” displayed a dissociation constant Kd of 1170 nM, a dH of -4.1 kcal/mol and a stoichiometry N of 0.85. Further, in assay [3], the dissociation constant Kd is 26 nM, the dH was -11.4 kcal/mol and the stoichiometry N was determined as 0.97.
On to “GST-NI3-10, Hck-SH3 (VSWSPD) - linker - CD4 cytoplasmic tail with the two cysteines mutated (from UniProt P08631-1 78-138; P01730 419-458) (designed binder)”, for which, in assay [1], the dissociation constant Kd was 27 nM, the dH was -11.5 kcal/mol and the stoichiometry N is 1.03.
With “GST-NI3-13, Hck-SH3 (VSWSPD) - linker - CD4 cytoplasmic tail truncated before the cysteines (from UniProt P08631-1 79-138; P01730 419-458) (designed binder)”, the dissociation constant Kd in assay [4] stood at 51 nM; in assay [5], 96 nM; in assay [6], 149 nM; in assay [1] it was 41 nM. In addition, the dH in assay [4] was -12.2 kcal/mol; in assay [5], -16.1 kcal/mol; in assay [6], -13.8 kcal/mol; in assay [1], -7.04 kcal/mol. Moreover, the stoichiometry N stood at 1 in assay [4], 1.06 in assay [5], 0.98 in assay [6] and 0.98 in assay [1].
In turn, “HIV-1 NefSF2 (Δ1-44), C210A (from UniProt P03407 45-210) (domain or fragment)” came in with a Kd in assay [7] of 28 nM.
With “HIV-1 NefSF2 wild type, full length (1-210), C210A (from UniProt P03407) (natural protein)”, the equilibrium dissociation constant (Kd) in assay [8] stood at 37 nM.
